Reference: patent publication EP0526502B1, “PHENOLIC AMINE DEPIGMENTING AND ANTIMELANOMA AGENTS” (The Governors of the University of Alberta, priority 1990, dated 1991)

Substrate: NCCSc1ccc(O)cc1
Assay: Enzyme kinetics with monoamineoxidase (substrate disappearance by HPLC, Lineweaver-Burk)
Type: biochemical
Settings: other: plasma monoamine oxidase, 0.005 unit/ml, pH 7.4, 37°C
Description: Mushroom tyrosinase (400 units/mg) and plasma MAO (1000 units/gm) were obtained from Sigma Chemical Co. (St. Louis, MO, USA). A reaction mixture consisted of a substrate of 7 to 8 different concentrations (40 to 500 »M for mushroom tyrosinase and 20 to 200 »M for MAO) and of either mushroom tyrosinase (2.5 »g) or MAO (10 »g) in 1.0 mL of 0.05 M sodium phosphate buffer, pH 6.8 and 7.4 respectively. The reactions were carried out at 37°C in a shaking water bath, and stopped by taking 100 »L of the reaction mixture and adding it to 900 »L of 0.4 M HCLO₄. The disappearance of substrate was followed using HPLC (high pressure liquid chromatography) Km and Vmax values were calculated from the Lineweaver-Burk plots.

B1: plasma MAO (Bos taurus) (protein)
chain: REEGGVGSEEGVGKQCHPSLPPRCPSRSPSDQPWTHPDQSQLFADLSREELTTVMSFLTQQLGPDLVDAAQARPSDNCVFSVELQLPPKAAALAHLDRGSPPPAREALAIVFFGGQPQPNVTELVVGPLPQPSYMRDVTVERHGGPLPYYRRPVLLREYLDIDQMIFNRELPQAAGVLHHCCSYKQGGQKLLTMNSAPRGVQSGDRSTWFGIYYNITKGGPYLHPVGLELLVDHKALDPADWTVQKVFFQGRYYENLAQLEEQFEAGQVNVVVIPDDGTGGFWSLKSQVPPGPTPPLQFHPQGPRFSVQGNRVASSLWTFSFGLGAFSGPRVFDVRFQGERLAYEISLQEAGAVYGGNTPAAMLTRYMDSGFGMGYFATPLIRGVDCPYLATYMDWHFVVESQTPKTLHDAFCVFEQNKGLPLRRHHSDFLSHYFGGVAQTVLVFRSVSTMLNYDYVWDMVFYPNGAIEVKLHATGYISSAFLFGAARRYGNQVGEHTLGPVHTHSAHYKVDLDVGGLENWVWAEDMAFVPTAIPWSPEHQIQRLQVTRKQLETEEQAAFPLGGASPRYLYLASKQSNKWGHPRGYRIQTVSFAGGPMPQNSPMERAFSWGRYQLAITQRKETEPSSSSVFNQNDPWTPTVDFSDFINNETIAGKDLVAWVTAGFLHIPHAEDIPNTVTVGNGVGFFLRPYNFFDQEPSMDSADSIYFREGQDAGSCEINPLACLPQAATCAPDLPVFSHGGYPEY
notes: purchased Sigma Chemical Co. (St. Louis, MO, USA)
Q: For B1, which Km is on record?
A: 52.6 µM
